# Data taken from paper PMC4740795, “Mechanistic insights into the recognition of 5-methylcytosine oxidation derivatives by the SUVH5 SRA domain”.
# T1: SUVH5 SRA domain (Arabidopsis, UniProt O82175 362-528)
# T1 sequence: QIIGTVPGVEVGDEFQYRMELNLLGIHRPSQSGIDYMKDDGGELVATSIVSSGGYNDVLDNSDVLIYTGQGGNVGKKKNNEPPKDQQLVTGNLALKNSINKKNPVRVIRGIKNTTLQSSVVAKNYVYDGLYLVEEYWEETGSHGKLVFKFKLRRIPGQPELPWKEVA
# T2: UHRF1 SRA domain (mammalian? (species ), UniProt Q96T88-2 427-630)
# T2 sequence: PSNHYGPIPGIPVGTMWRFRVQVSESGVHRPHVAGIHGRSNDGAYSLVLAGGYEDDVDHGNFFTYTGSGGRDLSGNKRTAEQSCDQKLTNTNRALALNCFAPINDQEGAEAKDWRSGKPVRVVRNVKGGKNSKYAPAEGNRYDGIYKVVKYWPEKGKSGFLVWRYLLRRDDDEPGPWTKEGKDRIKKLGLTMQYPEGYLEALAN
# B1: fully-5hmCG 10-mer with 3'-T overhang (crystal) (dsDNA)
# DNA 1: ACTACGTAGTT
# DNA 2: ACTACGTAGTT
# modifications: 5hmC at position 5, both strands
# B2: fully-5mCG duplex (ITC) (dsDNA)
# DNA 1: CAGCTCGAGCTG
# DNA 2: CAGCTCGAGCTG
# modifications: 5mC at central CG, both strands
# B3: fully-5fCG duplex (ITC) (dsDNA)
# DNA 1: CAGCTCGAGCTG
# DNA 2: CAGCTCGAGCTG
# modifications: 5fC at central CG, both strands
# B4: hemi-5mCG 12-mer (dsDNA)
# DNA 1: CCATGCGCTGAC
# DNA 2: GTCAGCGCATGG
# modifications: X = 5mC, one strand
# B5: fully-5hmCG duplex (ITC) (dsDNA)
# DNA 1: CAGCTCGAGCTG
# DNA 2: CAGCTCGAGCTG
# modifications: 5hmC at central CG, both strands
# B6: fully-5caCG duplex (ITC) (dsDNA)
# DNA 1: CAGCTCGAGCTG
# DNA 2: CAGCTCGAGCTG
# modifications: 5caC at central CG, both strands
# B7: hemi-5hmCG duplex (ITC) (dsDNA)
# DNA 1: CCATGCGCTGAC
# DNA 2: GTCAGCGCATGG
# modifications: 5hmC at central CG, one strand
# Assays:
# SUVH5 SRA domain [1] = target: T1, SUVH5 SRA domain; assay: X-ray crystal structure (2.6 A); 2:1 complex, dual 5hmC flip-out; ITC: 40 mM Tris-HCl pH 7.5, 50 mM NaCl, 2 mM b-mercaptoethanol, 25 C; FP: 20 mM Tris-HCl pH 7.5, 50 mM NaCl, 1 mM DTT, 20 C; EMSA: 25 mM Tris-HCl pH 7.5, 5% glycerol, 60 mM NaCl, 10 mM MgCl2, 0.4 mg/mL BSA, 2 mM DTT; conditions: protein: recombinant; tags: His6-SUMO, cleaved with Ulp1; chain copies: 2; self-complementary, 2 copies of strand; 3' T overhang
# SUVH5 SRA domain [2] = target: T1, SUVH5 SRA domain; assay: ITC; N = 0.48; ITC: 40 mM Tris-HCl pH 7.5, 50 mM NaCl, 2 mM b-mercaptoethanol, 25 C; FP: 20 mM Tris-HCl pH 7.5, 50 mM NaCl, 1 mM DTT, 20 C; EMSA: 25 mM Tris-HCl pH 7.5, 5% glycerol, 60 mM NaCl, 10 mM MgCl2, 0.4 mg/mL BSA, 2 mM DTT; conditions: protein: recombinant; tags: His6-SUMO, cleaved with Ulp1; chain copies: 2; self-complementary, 2 copies of strand
# SUVH5 SRA domain [3] = target: T1, SUVH5 SRA domain; assay: ITC; N fixed to 0.5; endothermic; 3-fold higher concentrations; ITC: 40 mM Tris-HCl pH 7.5, 50 mM NaCl, 2 mM b-mercaptoethanol, 25 C; FP: 20 mM Tris-HCl pH 7.5, 50 mM NaCl, 1 mM DTT, 20 C; EMSA: 25 mM Tris-HCl pH 7.5, 5% glycerol, 60 mM NaCl, 10 mM MgCl2, 0.4 mg/mL BSA, 2 mM DTT; conditions: protein: recombinant; tags: His6-SUMO, cleaved with Ulp1; chain copies: 2; self-complementary, 2 copies of strand
# UHRF1 SRA domain = target: T2, UHRF1 SRA domain; assay: fluorescence polarization; 20 C; ITC: 40 mM Tris-HCl pH 7.5, 50 mM NaCl, 2 mM b-mercaptoethanol, 25 C; FP: 20 mM Tris-HCl pH 7.5, 50 mM NaCl, 1 mM DTT, 20 C; EMSA: 25 mM Tris-HCl pH 7.5, 5% glycerol, 60 mM NaCl, 10 mM MgCl2, 0.4 mg/mL BSA, 2 mM DTT; conditions: protein: recombinant; tags: His6-SUMO, cleaved with Ulp1; label: 5'-6FAM
# SUVH5 SRA domain [4] = target: T1, SUVH5 SRA domain; assay: ITC; N = 0.52; ITC: 40 mM Tris-HCl pH 7.5, 50 mM NaCl, 2 mM b-mercaptoethanol, 25 C; FP: 20 mM Tris-HCl pH 7.5, 50 mM NaCl, 1 mM DTT, 20 C; EMSA: 25 mM Tris-HCl pH 7.5, 5% glycerol, 60 mM NaCl, 10 mM MgCl2, 0.4 mg/mL BSA, 2 mM DTT; conditions: protein: recombinant; tags: His6-SUMO, cleaved with Ulp1; chain copies: 2; self-complementary, 2 copies of strand
# SUVH5 SRA domain [5] = target: T1, SUVH5 SRA domain; assay: ITC; N fixed to 0.5; 3-fold higher concentrations; ITC: 40 mM Tris-HCl pH 7.5, 50 mM NaCl, 2 mM b-mercaptoethanol, 25 C; FP: 20 mM Tris-HCl pH 7.5, 50 mM NaCl, 1 mM DTT, 20 C; EMSA: 25 mM Tris-HCl pH 7.5, 5% glycerol, 60 mM NaCl, 10 mM MgCl2, 0.4 mg/mL BSA, 2 mM DTT; conditions: protein: recombinant; tags: His6-SUMO, cleaved with Ulp1; chain copies: 2; self-complementary, 2 copies of strand
# SUVH5 SRA domain [6] = target: T1, SUVH5 SRA domain; assay: ITC; ITC: 40 mM Tris-HCl pH 7.5, 50 mM NaCl, 2 mM b-mercaptoethanol, 25 C; FP: 20 mM Tris-HCl pH 7.5, 50 mM NaCl, 1 mM DTT, 20 C; EMSA: 25 mM Tris-HCl pH 7.5, 5% glycerol, 60 mM NaCl, 10 mM MgCl2, 0.4 mg/mL BSA, 2 mM DTT; conditions: protein: recombinant; tags: His6-SUMO, cleaved with Ulp1; chain copies: 2
binder,measurement,setting,value
B1,binding result,SUVH5 SRA domain [1],binds
B2,Kd,SUVH5 SRA domain [2],1.2 ± 0.09 µM
B3,Kd,SUVH5 SRA domain [3],~125 µM
B4,Kd,UHRF1 SRA domain,0.35 µM
B5,Kd,SUVH5 SRA domain [4],1.5 ± 0.12 µM
B6,Kd,SUVH5 SRA domain [5],~150 µM
B7,Kd,SUVH5 SRA domain [6],7.6 ± 0.6 µM
